In US20160215055A1 (PROMIS NEUROSCIENCES, published 2016):
Ends that are not written are not given here.

Biological target: T1, FasR epitope peptide LHHDGQFCH (human FasR residues 52-60) (human, also: coupled to BSA, linkage not given here)
T1 construct: Coated as BSA-peptide at 100 ng/well; The immunogens were KLH-Cys-X and OVA-Cys-X; also called BSA-specific peptide
T1 peptide: LHHDGQFCH
Assay: ELISA, BSA-peptide coated on plates

B1: AMF-3a-118 (antibody, V domains shown)
VH: QSVEESGGRLVTPGTPLTLTCKASGFSLSDSRVSWVRQAPGKGLEWIGIVGIGWNIYHANWAKGRFTISKTSSTTVDLKITSPTVEDTATYFCARGLGGGTVIWGPGTLVTVSL
VL: AQVLTQTPASVSAAVGGTVTISCQSSESVYKNNYLSWFQQKPGQPPKLLIYEASKLASGVSTRFKGSGSGTQFTLTISGVQCDDAATYYCLGEFSCYSGDCGTFGGGTAVVVKG
notes: Recombinant rabbit monoclonal IgG (RabMAb) expressed in HEK-293-6E cells
B1: binds.
